The data set deals with T1, LvHSF1 (rLvHSF1-GST) (Litopenaeus vannamei, UniProt X2D760 1-632).
T1 sequence: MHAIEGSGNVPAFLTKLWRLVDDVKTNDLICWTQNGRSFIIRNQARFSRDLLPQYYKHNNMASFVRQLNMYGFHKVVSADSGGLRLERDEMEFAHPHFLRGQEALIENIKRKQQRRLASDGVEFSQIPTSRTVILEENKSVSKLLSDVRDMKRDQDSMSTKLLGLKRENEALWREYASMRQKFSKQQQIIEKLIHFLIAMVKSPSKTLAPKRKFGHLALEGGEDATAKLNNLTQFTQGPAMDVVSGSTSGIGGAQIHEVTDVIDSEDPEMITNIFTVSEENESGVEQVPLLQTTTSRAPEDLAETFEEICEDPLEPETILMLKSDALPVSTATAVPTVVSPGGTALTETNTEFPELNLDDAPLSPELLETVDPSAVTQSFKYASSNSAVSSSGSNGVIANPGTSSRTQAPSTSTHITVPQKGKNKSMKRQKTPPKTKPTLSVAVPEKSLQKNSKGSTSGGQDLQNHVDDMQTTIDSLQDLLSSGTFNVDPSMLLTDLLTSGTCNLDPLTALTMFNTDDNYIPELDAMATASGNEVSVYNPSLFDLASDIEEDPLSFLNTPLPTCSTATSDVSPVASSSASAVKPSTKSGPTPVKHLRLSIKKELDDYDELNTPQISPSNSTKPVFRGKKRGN
In words: EMSA; EMSA: 10 ug recombinant protein, 20 fmol biotin probe, LightShift Chemiluminescent EMSA kit, 5% native PAGE; buffer, pH and temperature not stated. Particulars: blunt. (In general: In EMSA bound probe runs differently from free probe, usually more slowly.)

Where [1] appears, read: chain copies: 3, label: biotin (labeled probe).

B1: Mut-SWD-Probe1 (dsDNA)
DNA 1: TACCACTAGGACTTTCCAAACGGCCAGGTTTGCTTCACTATAACA
DNA 2: TGTTATAGTGAAGCAAACCTGGCCGTTTGGAAAGTCCTAGTGGTA
For the molecule B1, the binding result (chain copies: 3, label: biotin) is listed as “no binding”.

B2: SWD-Probe2 (dsDNA)
DNA 1: GTTGGGATTTCCATGATGACTTTTCGAGGAATTAGTGGCTGCGTG
DNA 2: CACGCAGCCACTAATTCCTCGAAAAGTCATCATGGAAATCCCAAC
Turning to B2, under setting [1], the binding result is reported as “binds”.

B3: SWD-Probe1 (dsDNA)
DNA 1: TACCACTAGGACTTTCTATAGAACCATCTTTGCTTCACTATAACA
DNA 2: TGTTATAGTGAAGCAAAGATGGTTCTATAGAAAGTCCTAGTGGTA
As for B3, under setting [1], the binding result is “binds”.

The record behind these values is publication PMC13086497, “Heat shock factor regulation of antimicrobial peptides expression suggests a conserved defense mechanism induced by febrile temperature in arthropods”.
